Results published in PMC5343425.

Molecular target: Purified LDLR ectodomain (UniProt P01130)
Experiment: SPR; BIAcore 3000; LDLR ectodomain immobilised on a CM5 chip by amine coupling (target 1000 RU); lipoprotein fractions injected at 5 nM apoB in HBS-N pH 7.4 (0.01 M HEPES, 0.15 M NaCl) with 0.5% BSA and 1 mM calcium chloride; 25 °C, 30 μl/min for 3 min; fitted with the two-state binding model (A + B ↔ AB ↔ AB*)

Chain of Purified LDLR ectodomain (P01130 22-788): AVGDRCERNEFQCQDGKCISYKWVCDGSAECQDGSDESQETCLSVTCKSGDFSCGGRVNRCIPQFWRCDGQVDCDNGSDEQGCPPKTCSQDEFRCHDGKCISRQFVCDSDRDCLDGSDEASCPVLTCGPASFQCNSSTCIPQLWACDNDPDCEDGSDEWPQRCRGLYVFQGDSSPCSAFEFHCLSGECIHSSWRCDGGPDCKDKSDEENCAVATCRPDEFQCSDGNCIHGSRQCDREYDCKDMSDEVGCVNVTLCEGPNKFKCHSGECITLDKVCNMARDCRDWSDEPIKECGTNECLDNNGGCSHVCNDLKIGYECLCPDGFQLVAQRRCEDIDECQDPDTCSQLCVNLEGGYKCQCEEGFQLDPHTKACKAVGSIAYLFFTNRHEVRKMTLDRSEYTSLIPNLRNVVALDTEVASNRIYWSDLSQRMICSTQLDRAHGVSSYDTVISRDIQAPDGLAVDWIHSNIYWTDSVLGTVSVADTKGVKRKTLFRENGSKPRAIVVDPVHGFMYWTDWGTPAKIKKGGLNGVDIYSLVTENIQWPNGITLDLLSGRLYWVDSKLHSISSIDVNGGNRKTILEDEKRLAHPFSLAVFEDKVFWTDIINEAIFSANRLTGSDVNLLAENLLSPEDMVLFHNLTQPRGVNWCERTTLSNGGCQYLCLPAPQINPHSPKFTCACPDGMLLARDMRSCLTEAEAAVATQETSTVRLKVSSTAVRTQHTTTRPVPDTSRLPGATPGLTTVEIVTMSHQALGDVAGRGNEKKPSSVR

| Substance | K1 (two-state, step 1) [M⁻¹] | K2 (two-state, step 2) | Ka [M⁻¹] | ka1 (two-state, step 1) [M⁻¹ s⁻¹] | ka2 (two-state, step 2) [s⁻¹] | kd1 (two-state, step 1) [s⁻¹] | kd2 (two-state, step 2) [s⁻¹] |
| --- | --- | --- | --- | --- | --- | --- | --- |
| LDL (density 1.019-1.063 g/ml) isolated from fasting APOE3/E4 subjects (from UniProt P02649 19-317; P02649 19-317) (complex) | 1.4e+08 | 1.7 | 5e+08 | 1.45e+06 | 0.006 | 0.0127 | 0.00287 |
| VLDL1-rich TRL fraction (Sf 60-400) isolated from fasting plasma of APOE3/E4 subjects (from UniProt P02649 19-317; P02649 19-317) (complex) | 1.9e+08 | 17.3 | 3.3e+09 | 930000 | 0.017 | 0.0052 | 0.00097 |
